In publication doi:10.1101/2023.08.11.552966 (bioRxiv, 2023):

Columns and labels:
[1] = biological target: RAD51 WT (Homo sapiens, UniProt Q06609 1-339); experiment: BLI
[2] = biological target: the molecule itself; experiment: cross-linking

| Binder | Kd [1] [nM] | binding result [2] |
| --- | --- | --- |
| TCCTTTTGATAAGAGGTCATTTTTGCGGATGGC (ssDNA) [33m DNA] | 3840 |  |
| His-tagged RAD51 S97A (non phosphorylable mutant) (natural protein) MAMQMQLEANADTSVEEESFGPQPISRLEQCGINANDVKKLEEAGFHTVEAVAYAPKKELINIKGISEAKADKILAEAAKLVPMGFTTATEFHQRRAEIIQITTGSKELDKLLQGGIETGSITEMFGEFRTGKTQICHTLAVTCQLPIDRGGGEGKAMYIDTEGTFRPERLLAVAERYGLSGSDVLDNVAYARAFNTDHQTQLLYQASAMMVESRYALLIVDSATALYRTDYSGRGELSARQMHLARFLRMLLRLADEFGVAVVITNQVVAQVDGAAMFAADPKKPIGGNIIAHASTTRLYLRKGRGETRICKIYDSPCLPEAEAMFAINADGVGDAKD |  | binds |
| His-tagged RAD51 S97D (phosphomimetic mutant) (natural protein) MAMQMQLEANADTSVEEESFGPQPISRLEQCGINANDVKKLEEAGFHTVEAVAYAPKKELINIKGISEAKADKILAEAAKLVPMGFTTATEFHQRRDEIIQITTGSKELDKLLQGGIETGSITEMFGEFRTGKTQICHTLAVTCQLPIDRGGGEGKAMYIDTEGTFRPERLLAVAERYGLSGSDVLDNVAYARAFNTDHQTQLLYQASAMMVESRYALLIVDSATALYRTDYSGRGELSARQMHLARFLRMLLRLADEFGVAVVITNQVVAQVDGAAMFAADPKKPIGGNIIAHASTTRLYLRKGRGETRICKIYDSPCLPEAEAMFAINADGVGDAKD |  | binds |
| GCCAUCCGCAAAAAUGACCUCUUAUCAAAAGGA (ssRNA) [33m RNA] | 530 |  |
